Assay: soluble on expression in E. coli; label from the status in PepcDB or PDB records

Sequence | soluble on expression in E. coli
MGSDKIHHHHHHMRITIVTIFPEMVEVIKKYGVIARAVERGIVEINVENLRDYTTDRHRTVDDYQYGGGYGMVMKPEPFFRFYESYVEKYGKPYVILTSPQGRIFNYKIAEELSKKDDIVIFCGRYEGIDERVMSIVDDEISIGDYILTGGELPAMVITDAVVRLVPGVVERESVERESFHQGLLDHPVYTRPYEYKGMKVPDVLLSGDHEKVELWRRKESIKKTLAKRPDLFLAKELDEMDKLAIIELFRELMEKC | not soluble
MGSDKIHHHHHHMTFILNSQNVFNYLLEKGLCNQSEQPPAKIEQLTAKNFNLLVTLPGDRKLLVKQERHNPEGKAAGEFLIEWRIQEFLQQFPNLSNYRSFLPEVLHFDVENSIIVFKYFDDYRDLMDFYTKGNSFNIEIATAIGNILGTIHRDTFNRQEYQEFFTKNSDNLMGDQVLHLVRRLERVEPEIFGIVPSDGLKFFALYQRYDSLGQAIAELGNAVTPSCLTHNDLKLNNILLHKDWQDSSNNIVRLIDWERSAWGDPAFDLGTLISSYVQIWLGSLVISNSLSIEESLRLAITPLEVLQPSISTLTQAYLKTFPEILDHRSDFLQRVVQFTGFTLIQQIQAMIQYQKSFGNMGIAMLQVAKTLLSRPVQSMPTIFGAAAVELGHLNNSPV | not soluble
MYEPKPEHRFTFGLWTVGNVGRDPFGDAVRERLDPVYVVHKLAELGAYGVNLHDEDLIPRGTPPQERDQIVRRFKKALDETGLKVPMVTANLFSDPAFKDGAFTSPDPWVRAYALRKSLETMDLGAELGAEIYVVWPGREGAEVEATGKARKVWDWVREALNFMAAYAEDQGYGYRFALEPKPNEPRGDIYFATVGSMLAFIHTLDRPERFGLNPEFAHETMAGLNFVHAVAQALDAGKLFHIDLNDQRMSRFDQDLRFGSENLKAAFFLVDLLESSGYQGPRHFDAHALRTEDEEGVWAFARGCMRTYLILKERAEAFREDPEVKELLAAYYQEDPAALALLGPYSREKAEALKRAELPLEAKRRRGYALERLDQLAVEYLLGVRG | soluble
MYKYISNELPQFFENGMLRFTQPGQFNDPFELLPRYVDFMGENTKQYILDNIEVLVKEIPQNEPWYIKLIPMSIKVFAIRLLLTSNHKRVKKVTDEIDAFGLSVANGQYRDIIDQSYGILCLSAKEDSLLMWSHYGNSHKGYVIEFDTSHKFFNQVIPNKKTGGVLDYAGTPLKVTYTKRRKTILFWQKAMSEVFLTKGSDWEYEQEYRMVLPLETSTEVVNGNIHLFHIPFDAVKSIIFGAKCEDEFIQNSIAKIHHWDSKHIDFQLFQFNLSDNDFELVRKKI | soluble
SNAMTHIQLDFSKTLEFFGEHELKQQQEIVKSIHKTIHEGTGAGSDFLGWVDLPVDYDKEEFSRIVEASKRIKENSDVLVVIGIGGSYLGARAAIEMLTSSFRNSNEYPEIVFVGNHLSSTYTKELVDYLADKDFSVNVISKSGTTTEPAVAFRLFKQLVEERYGKEEAQKRIFATTDKEKGALKQLATNEGYETFIVPDDVGGRYSVLTAVGLLPIATAGINIEAMMIGAAKAREELSSDKLEENIAYQYATIRNILYAKGYTTEMLINYEPSMQYFNEWWKQLFGESEGKDFKGIYPSSANYTTDLHSLGQYVQEGRRFLFETVVKVNHPKYDITIEKDSDDLDGLNYLAGKTIDEVNTKAFEGTLLAHTDGGVPNMVVNIPQLDEETFGYVVYFFELACAMSGYQLGVNPFNQPGVEAYKQNMFALLGKPGFEDLKKELEERL | soluble
MTGITIFYGDNIIRYVVNTKKGLRPYFKQLPDNYQAKFELNLMSKFSNFIINKPFSAINTAARHIFSRYLLENKHLFYQYFKISNTGIDHLEQLINVNFFSSDRTSFCECNRFP | not soluble
MSLEIKFLSLCILAGVLFVSQVNASANNGKDDVKYAALTQKDLDALPVEKRASVLDELGFIHEYGLSVPMNRERALQYYKQACELGGNYGCYNVKYAYQYGDGVAKDSAQANKYAKKMNLDNLLIEQEYIDKFSQEIYMAKALADTDKSQRAAFISILIHALNNRPESDALFFSRIGFNQEKTFRLATLWSQDGDPQMDYQMGRLTLNDFSGRYADEPYQARPASLKWFRAAAEKGVVEAQSLLGGIYSGGEGDEWGIKPDIQEAQKWYGQAAKQGDSDAQIALGKIYYSGATGRTDYAKALALFTQVENDGTNSRSTMPLSWMYYNGLGTAPDCDKAWSYYKKASRYVGKKVEEGHHHHHH | not soluble
MGSDKIHHHHHHMYTQDNVISNNKRLSSFQLSKMHTFEVAARHCSFSLAAEELSMTPSAISHRINALESELGILLFKRSHRKIELTKEGERIYIAVKSSFSSLNQEILEVKSNEISGELTVYSRPSFAQCWLVPRIAGFQKQYPAISLNILTGNENINFHGHGIDVAIYFDEKQPSKLYCQDIMTETIVPVCSPEYAEEFDLIGKINNLSQCTLLHDNQAWGYDSNTDEWALWANNFNINCLASSASIRFDRSDLAVIAAMNNAGVAMGRESFISNQIKRGELIKPFIDKKILCPQRYYVATLPNNKNTKIELFIEWLKNEVQNEGGESIV | not soluble
MGSDKIHHHHHHMHGELGKENELDGEIFRQGPVEIRDSRQKVIHSGFSPESQIIEGINAIIKLAHSEEESNLVGIMMSHFMFESIHPFYDGNGRTGRYLLGIQLSKILSPATALTMSSAINQFRNKYYKAFHAVEHRLNRGDGTPFVISMLELLIAAQEGLIENIKQRIDFLASLEDAIKTLRGTNSFKNHQINLLYILGQIQLFGKDETLSLESAAKFLKVSKATATRYFRTLREMELVHEVSKRPLRFALTDKGREIVGLEVKI | not soluble
MIKIELKNKDNQIITGRIDHEKPEAPFVAEGDTLAVLAIKQYLYQVGDKIVVTYTGATPYLMVQLDETLAPSLIYLKEKVWEYQIPLEESARKAFVDTAFHSARHQIMVRQAHTFEKDNYQNLSMNTHDQKEYSGAYPHAYANVETRDDAVFFAKNAIDSKFGNLSHGSYPFASWGINQKKEAQLTIDFGRPVETDWIRLLFRADYPHDSYWEEVTLAFSDGEERVVATTNTTCFQEIKFPMKTTQTLTLKCLRKALDSSPFPALTQIEVFGRNK | soluble
MGQELNKIGIEVLRIVSIRDREEEIMEAVDNAMKRVNIVLVTGGLGPTKDDITKQTLCKYFHTELIFSEEVFENVKRVLAGKIPMNALNKSQAMVPKDCTVINNPVGSASVSWFEKDNKVLVSMPGVPQEMTAVMTESVLPKLREKFQTDVIMHRTFLVQHYPESILAEKLEPWETALPESIKLAYLPKLGIIRLRLTGRGQNKIEVESALNDEQAKLEAILGDDIFSEEDIPLEVIVGELLKKKNLTVSTAESCTGGSIAARLTSIAGSSEYFNGGIVAYSNEVKMNLLHVSPETLEVYGAVSEQTVIEMVKGAMKALKTDCAVATSGIAGPGGGTPEKPVGTVWIAAGYKNEIRTYRQETNRGRAMNIERAGNNALLILRDLLK | not soluble
MRKKLKAVLFDMDGVLFNSMPYHSEAWHQVMKTHGLDLSREEAYMHEGRTGASTINIVFQRELGKEATQEEIESIYHEKSILFNSYPEAERMPGAWELLQKVKSEGLTPMVVTGSGQLSLLERLEHNFPGMFHKELMVTAFDVKYGKPNPEPYLMALKKGGLKADEAVVIENAPLGVEAGHKAGIFTIAVNTGPLDGQVLLDAGADLLFPSMQTLCDSWDTIML | not soluble
MNYVSLVLVSHSEEIAKGLKKLLKQIAPDVRIAAAGGSDGEIGTNALHIQEAIESVYSEKGTVVLFDLGSALLNAELALEMADRKERVRIADAPLVEGAYIAAVEAGLGKPLEEVVQACEAAKEMVKIAK | not soluble
EEIHLIAVNELLYVKAEDKYLSLYKVHGATTHEYLLRSSLKELLAQLDPNQFWQIHRSIVVNVGKIDKVTRDFGGKMWVHIDRLQLPVSRALQHLFKVS | not soluble
MSLTIKNSLGQSHDYIKMFVKEGDTVVDATCGNGNDTAFLASLVGENGRVFGFDIQDKAIANTTKKLTDLNLIDRVTLIKDGHQNMDKYIDCPVKAVMFNLGYLPSGDHSISTRPETTIQALSKAMELLVTGGIITVVIYYGGDTGFEEKEKVLEFLKGVDQKKFIVQRTDFINQANCPPILVCIEKISEGHHHHHH | soluble
MGSDKIHHHHHHMLKKSNIQWTAKQIAKMMDKGTLGFDNSVQRGLCWKTDKKILLIDSMFQNYPIPAFYAARNEDKTYDMLDGKQRCHAIKEFIEGKFKLDGIEEVELEDGESIDVNGMSFEELPEELQDRVKDYSLTVYFFLDLSDDQVSEMFYRLNNGKALSAIELTRVKAKSFDAIRELGNHEIFKNALTLKQVNKYTNEDIVIKTYAMLYTENPSFETKKIRPLMQDVEFTEQQKEEIKKAYSKILDIWKAINTEDKEHKKIAKRILTRTHLLTIIPIVIKSDKTIEELASWLLKFYSGKRRASISEKYNSAAGSGSARSESIKIRLEELKKDYNEYFSNQDEEINKKIEEIFKEGDSIE | not soluble
MGSDKIHHHHHHMNFKQLLIDNFTYKTSYIARQAQGMNVKETKDYIAVDCGLPADTFNIITLLNNNVTEGIEKLYKEVNNYNQKKFPMSVWFWDDRYEQTIKSELIKLDLKEAEQNIAMVAELNTIHPTINMPEGFTIQKASSPEQIKKFGETLANLFGSSEEGIHVQAFYNQTASFDLWNSGNMNLYLGLYKDEVISVGSLVCTKDSIGIYDIATKEEMRGKGFGSTMFHYLLQEAKALNVAQCVLQASPDGINIYKKAGFQSVGQMTVFENRHLFE | not soluble
GSHMKDYSLEIDAVMKAAQINDTNNFVQALMRWHFSKETGSPFWLGMREQLNFDPIKDVKTINDLRQFSDISHCLRQEPVANLVPQGLPADSHPQVYESGGTTGAPKYVVAYDAWIEALISWRMSGYQHRPGRPSGNTLAAIPTGPHIVGAINKERALRLGGMFFSIDIDPRWVKRSLSEGDTATVRKYTHHLVDQVQNTLMNQDIRFLVTTPPVLRELLKRPEVVLQMKQSLAQITLGGTELNLDEIKFIASEILPDCEFSASYGSTSALGVSRSLLITSESQQVIYDSFSPFITYDVVDSITAQTVEYGERGNVIVTHLSPWAFYPRVAERDTAIRLPGVSGFAGDRLADIEPLKISEGRKVIEGVY | soluble
MFSRVRVSAPSHVHAGNYDIEGSIGRLYGTVGLALGEPRLTLEASPSHSVEVEGGSRRREAEDLARLYLDKVGSRGCRLEGVKIRIYEEIPAHVGLGSTTALALSIGSSIYRICGLEPLDLRELAVTAGRSLVSALGLYSFEQGGLIVDGGFVRGERRPPPLVFRAHVPGSVKVVVALPERPIAKILDIKRREDELLARMPPMDPSMAGWASRVVLLGIMANAAEGRWGEAARWMGEFNRRLGEYWAGEQGGIYCCSEVEEIVRAMVDAGAWSGLQSSWGPTVYGLTPARRAASVLEAARRAVERVGGGKVWVTSVDNVGAVISSF | not soluble
MSLRLTKGSVKHQAKTEAELKTVKTQLDTQKAQIEKHFAESAELFKTLINDYQKLYRHYATSSNNLLGEKDQKGLFTQQLITATDKSQNEQPRDYSEGASGLFKENKEEEGHHHHHH | soluble
MGSDKIHHHHHHMNSPADYDPKPRRASVAVDVGGVIVGGGAPVVVQSMTNTDTADIDATVRQVAALFQAGSEMVRITVDRDESAAAVPKIRERLLRLGMDVPLIGDFHYIGHKLLADHPACAEALAKYRINPGNVGFKDKKDKQFGEIVEMAIRYDKPVRIGVNWGSLDQELLTTLMDRNKEQGFPLSARQVTREAIVQSALISAELAEEIGLPRNRIILSAKVSQVQDLIAVYSMLSERSNHALHLGLTEAGMGSKGIVASSAAMGYVLQHGIGDTIRVSLTPEPNGDRTREVQVAQELLQVMGFRQFIPVVAACPGCGRTTSTVFQELAQNIQNDIRKNMPIWREKYPGVEALNVAVMGCIVNGPGESKHADIGISLPGTGESPAAPVFIDGEKALTLRGPNIAADFEALVIDYIEKRFGQKDAAE | not soluble

From the DeepSol protein solubility set
